T1: Znf706 A2C-AF488 (Homo sapiens, UniProt Q9Y5V0 1-76, A2C)
T1 sequence: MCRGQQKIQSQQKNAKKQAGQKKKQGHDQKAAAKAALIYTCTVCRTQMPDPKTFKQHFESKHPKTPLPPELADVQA


Target: T1, Znf706 A2C-AF488
Test: fluorescence anisotropy; 20 mM NaPi, 100 mM KCl, 0.05% NaN3, pH 7.4, 25 C (FP/anisotropy); unfolded G4: 20 mM Tris-HCl, 100 mM LiCl, pH 7.4; G4C2 also 20 mM NaPi, 100 mM NaCl, pH 7.4; NMR at 4 C or 37-50 C with 7.5% D2O
Settings: protein: recombinant; tags: AF488 label on Cys; His6-SUMO cleaved

| Binder | binding result |
| --- | --- |
| AAAAAAAAAAAAAAAAAAAA (ssDNA) [polyA] | no binding |
| TTTTTTTTTTTTTTTTTTTT (ssDNA) [polyT] | no binding |
